This note sets out measurements from patent publication US20260327324 (published 2026).

As a reminder, the Kd is the concentration at which binding is half-saturated. Low readings indicate a tighter complex, high ones a looser complex.

Experiment in all cases: SPR
In general terms: In SPR one partner is held on a chip, and binding of the other changes the refractive index at the surface.

For one test, the target named is PD-L1 (UniProt Q9NZQ7).
In another test the target is HSA (human, UniProt P02768).
Another test deals with T1, CD3e (UniProt P07766).
T1 chain: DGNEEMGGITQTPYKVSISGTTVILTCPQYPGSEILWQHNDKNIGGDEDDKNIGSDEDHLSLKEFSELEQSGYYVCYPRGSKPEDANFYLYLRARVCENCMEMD

PD-L1, sequence (Q9NZQ7 19-238): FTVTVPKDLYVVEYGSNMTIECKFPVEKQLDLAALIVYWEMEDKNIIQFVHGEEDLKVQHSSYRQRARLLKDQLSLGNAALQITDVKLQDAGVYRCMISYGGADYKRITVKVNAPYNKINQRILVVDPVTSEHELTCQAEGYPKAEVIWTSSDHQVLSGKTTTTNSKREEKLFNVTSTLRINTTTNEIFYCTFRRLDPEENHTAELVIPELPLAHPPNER

B1: PRO3477 (37-20-B03-sc09.1 human consensus LCDR2) (antibody)
chain: DIQMTQSPASLSASVGDRVTITCQASQSIGTYLAWYQQKPGKPPKLLIYAASSLQSGVPSRFSGSGSGTDFTLTISSLQPEDFATYYCQSNFYSDSTTIGPNAFGTGTKVTVLGGGGGSGGGGSGGGGSGGGGSEVQLVESGGGLVQPGGSLRLSCAASGFSFNSDYWIYWVRQAPGKGLEWIASIYGGSSGNTQYASWAQGRFTISRDNSKNTVYLQMNSLRAEDTAVYFCARGYVDYGGATDLWGQGTLVTVSS
Turning to B1, the binding result with PD-L1 was “no binding”.

B2: PRO3478 (37-20-B03-sc09.1 Y42S human consensus LCDR2) (antibody)
chain: DIQMTQSPASLSASVGDRVTITCQASQSIGTYLAWYQQKPGKPPKLLIYAASSLQSGVPSRFSGSGSGTDFTLTISSLQPEDFATYYCQSNFYSDSTTIGPNAFGTGTKVTVLGGGGGSGGGGSGGGGSGGGGSEVQLVESGGGLVQPGGSLRLSCAASGFSFNSDYWISWVRQAPGKGLEWIASIYGGSSGNTQYASWAQGRFTISRDNSKNTVYLQMNSLRAEDTAVYFCARGYVDYGGATDLWGQGTLVTVSS
For the molecule B2, in the test with PD-L1, the binding result is listed as “no binding”.

B3: PRO4112 (19-04-A10-sc11) (antibody)
chain: AFQLTQSPSSLSASVGDRVTITCQASESINSRLAWYQQKPGKPPKLLIYDASDLTSGVPSRFSGRGSGTDFTLTISSLQPEDFATYYCQGYGGSSTTTFGCGTKVTVLGGGGGSGGGGSGGGGSGGGGSQQLVESGGGLVQPGGSLRLSCAASGFSLSSYAMNWVRQAPGKCLEWIGHINAGDIAYYATWAKGRFTISKDNSKNTVYLQMNNLRAEDSAVYFCARGAGGFSTGPFKLWGQGTLVKVSS
Consider B3, for which binding in the test with HSA was characterised by a dissociation constant (Kd) of 0.174 nM.

B4: PRO4113 (19-04-A10-sc12) (antibody)
chain: AFQLTQSPSSLSASVGDRVTITCQASESINSRLAWYQQKPGKPPKLLIYDASDLTSGVPSRFSGRGSGTDFTLTISSLQPEDFATYYCQGYGGSSTTTFGCGTKVTVLGGGGGSGGGGSGGGGSGGGGSQSVVESGGGLVQPGGSLRLSCAASGFSLSSYAMNWVRQAPGKCLEWIGHINAGDIAYYATWAKGRFTISKDNSKNTVYLQMNSLRAEDSAVYFCARGAGGFSTGPFKLWGQGTLVKVSS
The molecule B4 had a Kd with HSA of 0.0901 nM.

B5: PRO2155 (19-04-A10-sc02) (antibody)
chain: AFELTQSPSSLSASVGDRVTITCQASESINSRLAWYQQKPGQPPKLLIYDASDLTSGVPSRFSGSGSGTDFTLTISSLQPEDFATYYCQGYGGSSTTTFGGGTKLTVLGGGGGSGGGGSGGGGSGGGGSEVQLVESGGGLVQPGGSLRLSCAASGFSLSSYAMNWVRQAPGKGLEWIGHINAGDIAYYATWAKGRFTISRDNSKNTVYLQMNSLRAEDTAVYFCARGAGGFSTGPFKLWGQGTLVTVSS
In the case of B5, the Kd in the test with HSA turned out to be 2.62 nM.

B6: PRO3718 (28-21-D09-sc04 A67G_S68G) (antibody)
chain: DIQMTQSPSSLSASVGDRVTITCQSSQSVFSNNYLAWFQQKPGQSPKRLIYSGGTLASGVPSRFSGSGSGTDFTLTISSLQPEDFATYYCLGSYACSSADCYVFGTGTKVTVLGGGGGSGGGGSGGGGSGGGGSEVQLVESGGGLVQPGGSLRLSCAASGFSLSSYDMSWVRQAPGKGLAWIGASYASGPTYYASWAKGRFTISRDNSKNTVYLQMNSLRAEDTATYFCARGGWTGTSHSNIWGQGTLVTVSS
In the test with CD3e, B6 showed a Kd of 5.2 nM.

B7: PRO2781 (28-21-D09-sc04) (antibody)
chain: DIQMTQSPSSLSASVGDRVTITCQSSQSVFSNNYLAWFQQKPGQSPKRLIYSASTLASGVPSRFSGSGSGTDFTLTISSLQPEDFATYYCLGSYACSSADCYVFGTGTKVTVLGGGGGSGGGGSGGGGSGGGGSEVQLVESGGGLVQPGGSLRLSCAASGFSLSSYDMSWVRQAPGKGLAWIGASYASGPTYYASWAKGRFTISRDNSKNTVYLQMNSLRAEDTATYFCARGGWTGTSHSNIWGQGTLVTVSS
As to B7, binding with CD3e was put at a Kd of 5.88 nM.
